These results are taken from the Human Domainome abundance scans (Beltran et al. 2025).

± gives the uncertainty stated by the source.

The chains are these.
B1: Protein C-ets-1, residues 55 to 135; numbered along this chain, P14921 (parent)
chain: GFTKEQQRLGIPKDPRQWTETHVRDWVMWAVNEFSLKGVDFQKFCMNGAALCALGKDCFLELAPDFVGDILWEHLEILQKE

In the series the parent is B1. The series is described as follows: abundance fitness (aPCA) (normalised: wild type 0, dead -1); higher = more abundant; growth selection in yeast, the domain comes from the species named. The note with it: Homo sapiens.
Regarding GFTKEQQRLGIPKDPRQWTETHVRDWVMWAVNEFSLKGVDWQKFCMNGAALCALGKDCFLELAPDFVGDILWEHLEILQKE [F41W], the abundance fitness was -0.1 ± 0.046. Under GFTKEQQRLGIPKDPRQWTETHVRDWVMWAVNEFSLKGVDMQKFCMNGAALCALGKDCFLELAPDFVGDILWEHLEILQKE [F41M] stands 0.056 ± 0.067. To GFTWEQQRLGIPKDPRQWTETHVRDWVMWAVNEFSLKGVDFQKFCMNGAALCALGKDCFLELAPDFVGDILWEHLEILQKE [K4W] belongs -0.207 ± 0.062; to GFTKEQQRLGIPKDPRQWTETHVRDWVMCAVNEFSLKGVDFQKFCMNGAALCALGKDCFLELAPDFVGDILWEHLEILQKE [W29C], -0.364 ± 0.061.

On to GFTKEQQRLGIPKDPRHWTETHVRDWVMWAVNEFSLKGVDFQKFCMNGAALCALGKDCFLELAPDFVGDILWEHLEILQKE [Q17H], for which the abundance fitness is -0.115 ± 0.069. To GFTKEQQRLGIPKDPRNWTETHVRDWVMWAVNEFSLKGVDFQKFCMNGAALCALGKDCFLELAPDFVGDILWEHLEILQKE [Q17N] belongs -0.021 ± 0.072. To GFTKEQQRLGIPKDPRQWTETHVRDWVMWAVNEFSKKGVDFQKFCMNGAALCALGKDCFLELAPDFVGDILWEHLEILQKE [L36K] belongs -0.58 ± 0.19. To GFTKEQQRLGIPKDPRQWTETHVRDWVMWAVNEFSYKGVDFQKFCMNGAALCALGKDCFLELAPDFVGDILWEHLEILQKE [L36Y] belongs -0.539 ± 0.15; to GFTKEQQRLGIPKDPRQWTETHVRDWVMWAVNEFSGKGVDFQKFCMNGAALCALGKDCFLELAPDFVGDILWEHLEILQKE [L36G], -0.661 ± 0.037; to GFTKEQQRLGIPKDPRQWTETHVRDWVMWAVNEFSLKGVDFQKFCMNGAALCALGKDCFLELAPDFVGDILWENLEILQKE [H74N], -0.043 ± 0.062. As to GFTKEQQRLGIPKDPRQWTMTHVRDWVMWAVNEFSLKGVDFQKFCMNGAALCALGKDCFLELAPDFVGDILWEHLEILQKE [E20M], the abundance fitness was -0.078 ± 0.037. To GFTKEQQRLGIPKDPRQWTDTHVRDWVMWAVNEFSLKGVDFQKFCMNGAALCALGKDCFLELAPDFVGDILWEHLEILQKE [E20D] belongs -0.107 ± 0.032. Under GFTKEQQRLGIPKDPRQWTETHVRDWVMWAVNEFSLKGVDFQKFCMNGAALCALGKDCFLELAPDFVGWILWEHLEILQKE [D69W] stands -0.262 ± 0.056; under GFTKEQQRLGIPKDPRQWTETHVRDWVMWAVNEFSLKGVDFQKFCMNGAALCALGKDCFLELAPDFVGDILWEHAEILQKE [L75A], -0.921 ± 0.12; under GFTKEQQRLGIPKDPRQWTETHVRDWVMWAVNEFSLKGVDFQKFCMNGAALCALGKDCFLELAPDFVGDILWEHIEILQKE [L75I], -0.21 ± 0.14. To GFTKEQQRLGIPKDPRQWTETHVRDWVMWAVNEFSLKGVDFQKFCMNGAALCALGKDCFLELAPDFVGDILWEHGEILQKE [L75G] belongs -0.935 ± 0.073; to GFTKEQQRLGIPKDPRQWTETHVRDWVMWAVNEFSLKGVDFQKFCMNGAALCALGKDCFLELAPDFVGDILWEHPEILQKE [L75P], -0.898 ± 0.14; to GFTKEQQRLGIPKDPRQWTETHVRDWVMWYVNEFSLKGVDFQKFCMNGAALCALGKDCFLELAPDFVGDILWEHLEILQKE [A30Y], -0.188 ± 0.13. Regarding GFTKEQQRLGIPKDPRQWTETHVRDWVMWAVNEFSLKGVDFQKKCMNGAALCALGKDCFLELAPDFVGDILWEHLEILQKE [F44K], the abundance fitness is -1.04 ± 0.27. Under GFTKEQQRLGIPKDPRQWTETFVRDWVMWAVNEFSLKGVDFQKFCMNGAALCALGKDCFLELAPDFVGDILWEHLEILQKE [H22F] stands -0.965 ± 0.24; under GFTKEQQRLGIPKDPRQWTETMVRDWVMWAVNEFSLKGVDFQKFCMNGAALCALGKDCFLELAPDFVGDILWEHLEILQKE [H22M], -0.18 ± 0.034; under GFTKEQQRLGIPKDPRQWTETHVRDWVIWAVNEFSLKGVDFQKFCMNGAALCALGKDCFLELAPDFVGDILWEHLEILQKE [M28I], 0.006 ± 0.073.

In the case of GFTKEQQRLGIPKDPRQWTETHVRDWVMWAVNEFWLKGVDFQKFCMNGAALCALGKDCFLELAPDFVGDILWEHLEILQKE [S35W], the abundance fitness was -0.559 ± 0.05. With GFTKEQQRLGIPKDPRQWTETHVRDWVMWAVNEFPLKGVDFQKFCMNGAALCALGKDCFLELAPDFVGDILWEHLEILQKE [S35P], the abundance fitness was -0.625 ± 0.048.

GFTKEQQRLGIPKDPRQWTETHVRDWVMWAVNEFSLKGVDFQKFCMNGAALCALGKDCFLEKAPDFVGDILWEHLEILQKE [L62K]: the abundance fitness is -0.195 ± 0.066.

For the variant GFTKEQQRLGIPKDPRQWTETHVRDWVMWAVNEFSLKGVDFQKFCMNGAALCALGKDCFLEDAPDFVGDILWEHLEILQKE [L62D], the abundance fitness was -0.968 ± 0.22. As for GFTKEQQRLGIPKDPRQWTETHVRDWVMWAVWEFSLKGVDFQKFCMNGAALCALGKDCFLELAPDFVGDILWEHLEILQKE [N32W], the abundance fitness was -0.332 ± 0.05.

Regarding GFTKEQQRLGMPKDPRQWTETHVRDWVMWAVNEFSLKGVDFQKFCMNGAALCALGKDCFLELAPDFVGDILWEHLEILQKE [I11M], the abundance fitness is -0.043 ± 0.05. Under GFTKEQQRLGIPKDPRQWTETHVEDWVMWAVNEFSLKGVDFQKFCMNGAALCALGKDCFLELAPDFVGDILWEHLEILQKE [R24E] stands -0.275 ± 0.05; under GFTKEQQRLGIPKDPRQWTETHVRDWVMWAVNEFSLKGVDFQKFCMNGAALCALGKDCFLELAPDFVGDILWTHLEILQKE [E73T], -0.19 ± 0.07; under GFTKEQQRLGIPKDPRQFTETHVRDWVMWAVNEFSLKGVDFQKFCMNGAALCALGKDCFLELAPDFVGDILWEHLEILQKE [W18F], -1.11 ± 0.2.

GFFKEQQRLGIPKDPRQWTETHVRDWVMWAVNEFSLKGVDFQKFCMNGAALCALGKDCFLELAPDFVGDILWEHLEILQKE [T3F]: the abundance fitness is -0.029 ± 0.084.

For GFTKAQQRLGIPKDPRQWTETHVRDWVMWAVNEFSLKGVDFQKFCMNGAALCALGKDCFLELAPDFVGDILWEHLEILQKE [E5A], the abundance fitness is -0.062 ± 0.045. As for GFTKWQQRLGIPKDPRQWTETHVRDWVMWAVNEFSLKGVDFQKFCMNGAALCALGKDCFLELAPDFVGDILWEHLEILQKE [E5W], the abundance fitness is -0.186 ± 0.066.
